Legend:
[1] = tested on: ScNsrR D8C, [4Fe-4S] (Streptomyces coelicolor); experiment: EMSA; settings: EMSA: 10 mM Tris, 54 mM KCl, 0.3% glycerol, 1.32 mM glutathione, pH 7.2, on ice ~10 min; 5% PAGE in 1x TBE
[2] = tested on: ScNsrR D8A, [4Fe-4S] (Streptomyces coelicolor); experiment: EMSA; settings: EMSA: 10 mM Tris, 54 mM KCl, 0.3% glycerol, 1.32 mM glutathione, pH 7.2, on ice ~10 min; 5% PAGE in 1x TBE

Substance: hmpA1 promoter probe
- K half ([4Fe-4S] protein:DNA ratio) [1]: 20
- K half ([4Fe-4S] protein:DNA ratio) [2]: > 20

Reference: PMC5411485
